Laboratory results: US20220073631A1 (QYUNS THERAPEUTICS, published 2022)

Columns and labels:
[1] = target: T1, hIL-4Rα-ECD (wild-type hIL-4Rα extracellular domain with C-terminus his-tag) (human, UniProt P24394 26-232); experiment: SPR, Biacore T200, by the methods of Example 2; mean of three experiments
T1 construct: Made in HEK 293F cells and purified on nickel; not shown: C-terminal his-tag
Description: (§1) The protein A was chemically coupled to a CM5 chip, and an appropriate amount of the antibody was immobilized by a capture method such that the Rmax was less than 50 RU and the flow rate for the capture was 10 μl/min. The antigen was subject to gradient dilution, and the flow rate in the instrument was switched to 30 μl/min. The antigen was flowed through the reference channel and the channel with the immobilized antibody sequentially in an ascending order of concentration, and the running buffer was flowed through as a negative control. After each binding and dissociation was complete, the chip was regenerated with glycine, pH 1.5. Fitting was performed with the build-in software in the instrument according to a 1:1 binding model. The binding rate constant kₐ, the dissociation rate constant kd, and the equilibrium dissociation constant KD values of the antibody were calculated. Dupilumab was obtained by purchasing a commercially available medicine.
(§2) To further narrow down the key amino acids that PD2-31 binds to, multiple mutants of hIL-4Rα were designed in Loop 2 (V40FLLSEA46) and Loop 3 (M65[…]73) (Table 2). The wild-type hIL-4Rα (hIL-4Rα-ECD) and hIL-4Rα mutants were prepared using standard techniques. Briefly, the expression plasmids containing the extracellular domain of wild-type hIL-4Rα and different mutated hIL-4Rα were constructed and transfected into HEK 293F cells. After expression, the extracellular domain of wild-type hIL-4Rα and hIL-4Rα mutants with C-terminus his-tag were purified by Nickel chromatography. Purified proteins of wild-type hIL-4Rα and hIL-4Rα mutants were analyzed for interaction with PD2-31 and Dupilumab. The interaction was studied by Biacore T200, according to the methods in Example 2.

[2] = target: IL-4Rα on human cells (HEK Blue IL-4/IL-13, A549, TF-1, HFL-1, PBMCs) (human, UniProt P24394 26-825); experiment: cell-based or functional assay
[3] = target: T2, human IL-4Rα (Shanghai Novoprotein Technology Co., Ltd) (human, UniProt P24394 26-232); experiment: SPR, Biacore T200, antibody captured on protein A, antigen as analyte, 25 C, 1:1 model
T2 construct: Bought protein; also called hIL-4Rα; human interleukin-4 receptor alpha
Description: as §1

[4] = target: T3, extracellular domain of marmoset IL-4Rα (Gly 24-His 232) with C-terminus his-tag (marmoset); experiment: SPR, Biacore T200, by the methods of Example 2
T3 construct: range 24-232; Made in HEK 293F cells and purified on nickel

hIL-4Rα-Mu239 = target: T4, hIL-4Rα-Mu239 (human, UniProt P24394 26-232); experiment: SPR, Biacore T200, by the methods of Example 2
T4 construct: Printed positions fit the mature protein; also called M65I/D66A/D67A; not shown: C-terminal his-tag
T4 chain: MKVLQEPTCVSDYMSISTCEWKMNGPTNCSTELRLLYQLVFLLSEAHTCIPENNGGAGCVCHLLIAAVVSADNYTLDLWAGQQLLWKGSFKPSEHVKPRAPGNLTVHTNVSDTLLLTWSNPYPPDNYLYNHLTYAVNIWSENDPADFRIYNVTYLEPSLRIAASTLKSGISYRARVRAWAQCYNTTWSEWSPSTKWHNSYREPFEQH
Description: as §1, §2

- Kd [1]: 0.169 nM
- koff [1]: 0.000134 s⁻¹
- kon [1]: 779000 M⁻¹ s⁻¹
- IC50, IL-4-induced CCL-11 release activity in HFL-1 cells (FIG. 7(A)) [2]: 0.0431 µg/mL
- IC50, IL-4-induced CCL-17 release activity in A549 cells (FIG. 5(A)) [2]: 0.0326 µg/mL
- IC50, IL-4-induced CCL-17 release activity in PBMCs (FIG. 9(A)) [2]: 0.0248 µg/mL
- IC50, IL-4-induced STAT6 phosphorylation activity in HEK Blue IL-4/IL-13 cells (FIG. 4(A)) [2]: 0.00319 µg/mL
- IC50, IL-4-induced proliferation activity of TF-1 cells (FIG. 6(A)) [2]: 0.0139 µg/mL
- IC50, IL-13-induced CCL-11 release activity in HFL-1 cells (FIG. 7(C)) [2]: 0.0385 µg/mL
- IC50, IL-13-induced CCL-17 release activity in A549 cells (FIG. 5(C)) [2]: 0.0289 µg/mL
- IC50, IL-13-induced CCL-17 release activity in PBMCs (FIG. 9(C)) [2]: 0.0686 µg/mL
- IC50, IL-13-induced STAT6 phosphorylation activity in HEK Blue IL-4/IL-13 cells (FIG. 4(C)) [2]: 0.00878 µg/mL
- IC50, IL-13-induced proliferation activity of TF-1 cells (FIG. 6(C)) [2]: 0.0155 µg/mL
- Kd [3]: 0.378 nM
- koff [3]: 0.000236 s⁻¹
- kon [3]: 612000 M⁻¹ s⁻¹
- Kd [4]: ~0.1 nM
- Kd (hIL-4Rα-Mu239): 0.163 nM
- koff (hIL-4Rα-Mu239): 2.71e-05 s⁻¹
- kon (hIL-4Rα-Mu239): 166000 M⁻¹ s⁻¹
B1: QX005N (PD2-31) (antibody, V domains shown)
VH: EVQLVESGGGLVQPGGSLRLSCAASGIDLRTNSMSWVRQAPGKGLEWVGIIGSSGYMDYASWAKGRFTISRDNSKNTLYLQMNSLRAEDTAVYYCARHGDSSSFALWGQGTLVTVSS
VL: DIQMTQSPSSLSASVGDRVTITCRASESVYKNNRLSWYQQKPGKAPKLLIYEASKVASGVPSRFSGSGSGTDFTLTISSLQPEDFATYYCAGAYRGNIYPFGQGTKVEIK
notes: Humanized from rabbit clone #2, expressed as a full antibody in ExpiCHO-S cells (heavy chain 48.5 kDa, light chain 23.7 kDa)
